We go through two molecules from paper PMC12280161, “Reconstitution of circadian clock in synthetic cells reveals principles of timekeeping” (Nature Communications, 2025).

For this experiment, the target named is T1, KaiC (FLAG-seKaiC-1-519) (Synechococcus elongatus, UniProt Q79PF4 1-519, initially hyperphosphorylated due to its preparation and storage at low temperatures (residues not given)).
T1 construct: KaiC of Synechococcus elongatus, residues 1-519; In the model KaiC is assigned as hexamers; not measured here
T1 sequence (looked up): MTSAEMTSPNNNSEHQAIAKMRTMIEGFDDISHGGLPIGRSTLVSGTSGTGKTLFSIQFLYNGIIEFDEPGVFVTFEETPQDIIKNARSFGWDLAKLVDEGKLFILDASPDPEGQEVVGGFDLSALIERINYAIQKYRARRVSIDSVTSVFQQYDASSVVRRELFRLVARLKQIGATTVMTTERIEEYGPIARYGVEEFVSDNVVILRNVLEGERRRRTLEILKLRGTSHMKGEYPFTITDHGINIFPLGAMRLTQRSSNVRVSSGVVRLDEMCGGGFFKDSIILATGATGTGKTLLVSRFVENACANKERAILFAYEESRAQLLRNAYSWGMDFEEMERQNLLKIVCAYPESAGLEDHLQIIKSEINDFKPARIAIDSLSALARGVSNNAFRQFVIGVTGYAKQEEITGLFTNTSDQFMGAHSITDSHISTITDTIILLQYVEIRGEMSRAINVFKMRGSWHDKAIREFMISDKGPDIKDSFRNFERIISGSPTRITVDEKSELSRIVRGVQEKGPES
The experiment in a line: other fluorescence titration; fluorescence quenching of KaiB-6IAF: 25 µL of a 50:50 mixture of KaiB:KaiB-6IAF at 7 µM added to 25 µL of serially diluted KaiC in a black clear-bottom 96-well plate; mean intensity followed for 22 h; without KaiA. As to conditions: both partners purified.

B1: KaiB-6IAF (seKaiB-1-102-K25C-FLAG labelled with 6-iodoacetamidofluorescein) (natural protein, Synechococcus elongatus, UniProt Q79PF5 1-102, looked up)
chain: MSPRKTYILKLYVAGNTPNSVRALCTLKNILEVEFQGVYALKVIDVLKNPQLAEEDKILATPTLAKVLPLPVRRIIGDLSDREKVLIGLDLLYGELQDSDDF
modifications: 6-(iodoacetamido)fluorescein (6IAF), thiol-reactive fluorophore, on KaiB-K25C
notes: KaiB of Synechococcus elongatus, residues 1-102, with K25C; In the model KaiB is assigned as tetramers; not measured here; also called fluorescent KaiB; fluorescently labeled KaiB
B1: the binding result was “binds”.

B2: KaiB (seKaiB-1-102-FLAG) (natural protein, Synechococcus elongatus, UniProt Q79PF5 1-102, looked up)
chain: MSPRKTYILKLYVAGNTPNSVRALKTLKNILEVEFQGVYALKVIDVLKNPQLAEEDKILATPTLAKVLPLPVRRIIGDLSDREKVLIGLDLLYGELQDSDDF
notes: KaiB of Synechococcus elongatus, residues 1-102; Present as half of the 50:50 KaiB:KaiB-6IAF mixture; gives no signal of its own; also called unlabelled KaiB
For B2, the binding result is listed as “binds”.
